These results are taken from publication PMC6113214, “Outer membrane lipoprotein RlpA is a novel periplasmic interaction partner of the cell division protein FtsK in Escherichia coli” (Scientific Reports, 2018).

The target of this test is T1, FtsZ (E. coli, UniProt P0A9A6 1-383).
T1 construct: FtsZ, tubulin homologue of the Z-ring; the species is told only of the protein in general; also called purified FtsZ
T1 sequence (looked up): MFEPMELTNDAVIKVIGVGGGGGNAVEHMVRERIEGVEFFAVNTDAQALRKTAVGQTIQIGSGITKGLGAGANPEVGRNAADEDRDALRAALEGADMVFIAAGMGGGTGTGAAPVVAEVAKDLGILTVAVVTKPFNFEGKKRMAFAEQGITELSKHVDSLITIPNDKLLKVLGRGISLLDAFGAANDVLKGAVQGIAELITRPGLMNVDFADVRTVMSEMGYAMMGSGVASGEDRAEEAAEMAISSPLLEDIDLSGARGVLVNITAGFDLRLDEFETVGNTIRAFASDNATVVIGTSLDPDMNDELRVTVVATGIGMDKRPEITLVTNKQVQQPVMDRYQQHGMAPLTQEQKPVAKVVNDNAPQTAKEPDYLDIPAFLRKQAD
As to the kind of experiment: pull-down; His10-FtsKN bound to 100 uL Ni2+ IMAC resin (bait); 320 ug purified FLAG-RlpA or 250 ug purified FtsZ (prey); 4 C overnight; three washes in 20 mM Tris-HCl pH 7.0, 100 mM NaCl, 25 mM imidazole, 0.05% LDAO; elution with 1 M imidazole; Western blot; empty resin as control. Particulars: both partners purified. A general note: A western blot detects proteins with antibodies after separation by electrophoresis.

B1: His10-FtsKN(220), N-terminal domain of the cell division protein FtsK (amino acids 1-220) (domain or fragment, E. coli, UniProt P46889 1-220, looked up)
chain: MSQEYIEDKEVTLTKLSSGRRLLEALLILIVLFAVWLMAALLSFNPSDPSWSQTAWHEPIHNLGGMPGAWLADTLFFIFGVMAYTIPVIIVGGCWFAWRHQSSDEYIDYFAVSLRIIGVLALILTSCGLAAINADDIWYFASGGVIGSLLSTTLQPLLHSSGGTIALLCVWAAGLTLFTGWSWVTIAEKLGGWILNILTFASNRTRRDDTWVDEDEYEDD
notes: FtsK of E. coli, N-terminal membrane anchor domain, amino acids 1-220 of the 1329 amino acid protein; also called WT FtsKN; not shown: His10, N-terminal, kept
Regarding B1, the binding result was “binds”.
